The target of the experiment is T1, rat Kv4.2 α-subunit (rat) (UniProt Q63881).
T1 sequence (looked up): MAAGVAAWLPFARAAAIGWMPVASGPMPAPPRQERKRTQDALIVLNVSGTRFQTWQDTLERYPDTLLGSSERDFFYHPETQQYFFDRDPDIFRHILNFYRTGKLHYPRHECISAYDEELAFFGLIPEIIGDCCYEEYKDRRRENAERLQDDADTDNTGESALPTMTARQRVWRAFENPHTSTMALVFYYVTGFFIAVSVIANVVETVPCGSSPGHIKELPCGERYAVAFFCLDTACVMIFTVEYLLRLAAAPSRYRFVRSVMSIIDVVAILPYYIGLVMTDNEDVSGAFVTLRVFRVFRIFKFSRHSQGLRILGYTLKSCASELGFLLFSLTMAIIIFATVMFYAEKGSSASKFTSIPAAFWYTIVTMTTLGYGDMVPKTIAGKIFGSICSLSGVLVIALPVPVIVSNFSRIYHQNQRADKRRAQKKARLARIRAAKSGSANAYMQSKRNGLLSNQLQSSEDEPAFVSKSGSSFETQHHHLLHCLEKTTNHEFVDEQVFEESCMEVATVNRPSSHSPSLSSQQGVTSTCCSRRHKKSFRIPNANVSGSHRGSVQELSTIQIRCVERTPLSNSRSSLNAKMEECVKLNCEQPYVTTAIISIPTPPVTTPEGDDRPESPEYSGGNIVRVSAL
Nature of the experiment: cell-based or functional assay.

B1: KChIP3 (p19) (protein, UniProt Q9Y2W7 1-256, looked up, species assumed)
Calsenilin: MQPAKEVTKASDGSLLGDLGHTPLSKKEGIKWQRPRLSRQALMRCCLVKWILSSTAPQGSDSSDSELELSTVRHQPEGLDQLQAQTKFTKKELQSLYRGFKNECPTGLVDEDTFKLIYAQFFPQGDATTYAHFLFNAFDADGNGAIHFEDFVVGLSILLRGTVHEKLKWAFNLYDINKDGYITKEEMLAIMKSIYDMMGRHTYPILREDAPAEHVERFFEKMDRNQDGVVTIEEFLEACQKDENIMSSMQLFENVI
For B1, the Inactivation time constant (ms, at 50 mV), CHO cells (rKv4.2 + vector: 28.2) stood at 67.2 ms; the Peak Current (nA/cell at 50 mV), CHO cells, patch clamp (rKv4.2 + vector: 0.60) is 3.5 nA/cell; the Peak Current Density (pA/pF at 50 mV), CHO cells (rKv4.2 + vector: 25.5) came to 162 pA/pF; the Recovery from Inactivation Time constant, CHO cells (rKv4.2 + vector: 272.2) was 126 ms.

B2: KChIP2 (9ql) (protein, UniProt Q9NS61 1-270, looked up, species assumed)
A-type potassium channel modulatory protein KCNIP2: MRGQGRKESLSDSRDLDGSYDQLTGHPPGPTKKALKQRFLKLLPCCGPQALPSVSETLAAPASLRPHRPRLLDPDSVDDEFELSTVCHRPEGLEQLQEQTKFTRKELQVLYRGFKNECPSGIVNEENFKQIYSQFFPQGDSSTYATFLFNAFDTNHDGSVSFEDFVAGLSVILRGTVDDRLNWAFNLYDLNKDGCITKEEMLDIMKSIYDMMGKYTYPALREEAPREHVESFFQKMDRNKDGVVTIEEFIESCQKDENIMRSMQLFDNVI
With B2, the Inactivation time constant (ms, at 50 mV), CHO cells (rKv4.2 + vector: 28.2) was found to be 95.1 ms; the Peak Current (nA/cell at 50 mV), CHO cells, patch clamp (rKv4.2 + vector: 0.60) came to 3.3 nA/cell; the Peak Current Density (pA/pF at 50 mV), CHO cells (rKv4.2 + vector: 25.5) is 197 pA/pF; the Recovery from Inactivation Time constant, CHO cells (rKv4.2 + vector: 272.2) was determined as 49.5 ms.

Source of the values: patent publication US20030119102A1.
